Experimental data published in patent US20250059278A1 (SICHUAN HUIYU PHARMACEUTICAL, published 2025).

Legend:
[1] = molecular target: T1, Monkey CD3 on cynomolgus HSC-F cells (cynomolgus monkey, UniProt Q95LI5 22-198; Q95LI7 23-181; Q95LI8 22-171); assay: flow cytometry on HSC-F cells
T1 construct: whole, on cells; also called Monkey CD3-expressing cynomolgus HSC-F cells; cynomolgus monkey CD3-expressing HSC-F cells

[2] = molecular target: T2, Human CD3 on Jurkat cells (human, UniProt P07766 23-207; P09693 23-182; P04234 22-171); assay: flow cytometry on Jurkat cells
T2 construct: whole, on cells; also called Human CD3-expressing Jurkat cells; Jurkat (naturally expressing human CD3)

[3] = molecular target: T3, Human CD3εγ recombinant antigen (acrobiosystems, Cat. No. CDG-H52W5) (human, UniProt P07766 23-126; P09693 23-116); assay: SPR chip (Carterra), antibody captured, antigen in flow;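 note: antibodies captured through anti-human IgG Fc at roughly 1000 RU, kinetic constants fitted with a 1:1 binding model in Carterra analysis software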
T3 construct: Bought recombinant protein
Experimental: Antibodies at three concentrations of 4, 2, and 1 μg/mL were immobilized on the HC200M chip containing anti-human IgG Fc secondary antibody (Xantec, Cat. No.: HC200M), and the antibody binding amount was controlled to approximately 1000RU. […] The kinetic constants were obtained by fitting using the 1:1 binding model of Kinetics software from Carterra.

Binder	binding result [1]	EC50 [2] [nM]	Kd [3] [nM]	koff [3] [s⁻¹]	kon [3] [M⁻¹ s⁻¹]	EC50 [1] [nM]
Positive control antibody OKT3 (antibody, V domains shown) VH: not shown VL: QIVLTQSPAIMSASPGEKVTMTCSASSSVSYMNWYQQKSGTSPKRWIYDTSKLASGVPAHFRGSGSGTSYSLTISGMEAEDAATYYCQQWSSNPFTFGSGTKLEI	no binding (tested: 2 µg/ml starting concentration)	–	–	–	–	–
CD3 monoclonal antibody M28 (antibody, human IgG1, lambda, V domains shown, IgG: VH28 + IgG1 mutant CH, VL-1 + CL) VH: EVQLVESGGGLVQPGGSLRLSCAASGFTFNTYAMNWVRQAPGKGLEWVARIRSKYNNYATYYADSVKDRFTISRDDSKSILYLQMNSLKTEDTAMYYCVRHHNFGNSYVSWFAYWGQGTLVTVSS VL: not shown	–	0.854	2.53	0.00237	938000	0.287
Control antibody 1 (antibody, V domains shown, also called positive control antibody 1) VH: EVQLVESGGGLVQPKGSLKLSCAASGFTFNTYAMNWVRQAPGKGLEWVARIRSKYNNYATYYADSVKDRFTISRDDSQSILYLQMNNLKTEDTAMYYCVRHGNFGNSYVSWFAYWGQGTLVTVSA VL: QAVVTQESALTTSPGETVTLTCRSSTGAVTTSNYANWVQEKPDHLFTGLIGGTNKRAPGVPARFSGSLIGDKAALTITGAQTEDEAIYFCALWYSNLWVFGGGTKLTVL	–	0.473	–	–	–	0.487
CD3 monoclonal antibody M14 (antibody, human IgG1, lambda, V domains shown, IgG: VH14 + IgG1 mutant CH, VL-1 + CL) VH: EVQLVESGGGLVQPGGSLRLSCAASGFTFNTYAMNWVRQAPGKGLEWVARIRSKYNNYATYYADSVKDRFTISRDDSKSSLYLQMNSLKTEDTAMYYCVRHSNFGNSYVSWFEYWGQGTLVTVSS VL: not shown	–	1.51	0.624	0.00128	2.05e+06	0.271
CD3 monoclonal antibody M10 (antibody, human IgG1, lambda, V domains shown, IgG: VH10 + IgG1 mutant CH, VL-1 + CL) VH: EVQLVESGGGLVQPGGSLRLSCAASGFTFNTYAMNWVRQAPGKGLEWVARIRSKYNNYATYYADSVKDRFTISRDDSKSSLYLQMNSLKTEDTAVYYCVRHSNFRNSYVSWFAYWGQGTLVTVSS VL: not shown	–	1.23	2.15	0.00653	3.04e+06	0.194
CD3 monoclonal antibody M8 (antibody, human IgG1, lambda, V domains shown, IgG: VH8 + IgG1 mutant CH, VL-1 + CL) VH: EVQLVESGGGLVQPGGSLRLSCAASGFTFNTYAMNWVRQAPGKGLEWVARIRSKYNNYATYYADSVKDRFTISRDDSKSSLYLQMNNLKTEDTAMYYCVRHGNFGNTYVSWFAMWGQGTLVTVSS VL: not shown	–	0.268	5.16	0.0032	620000	0.186
CD3 monoclonal antibody M11 (antibody, human IgG1, lambda, V domains shown, IgG: VH11 + IgG1 mutant CH, VL-1 + CL) VH: EVQLVESGGGLVQPGGSLRLSCAASGFTFNTYAMNWVRQAPGKGLEWVARIRSKYNNYATYYADSVKDRFTISRDDSKSSLYLQMNSLKTEDTAVYYCVRHSNFVNSYVSWFAYWGQGTLVTVSS VL: not shown	–	0.13	2.95	0.00677	2.3e+06	0.169
CD3 monoclonal antibody M9 (antibody, human IgG1, lambda, V domains shown, IgG: VH9 + IgG1 mutant CH, VL-1 + CL) VH: EVQLVESGGGLVQPGGSLRLSCAASGFTFNTYAMNWVRQAPGKGLEWVARIRSKYNNYATYYADSVKGRFTISRDDSKSILYLQMNSLKTEDTAMYYCVRHGNFGNSYVSWFKYWGQGTLVTVSS VL: not shown	–	1.51	1.92	0.0025	1.3e+06	0.237
CD3 monoclonal antibody M4 (antibody, human IgG1, lambda, V domains shown, IgG: VH4 + IgG1 mutant CH, VL-1 + CL) VH: EVQLVESGGGLVQPGGSLRLSCAASGFTFNTYAMNWVRQAPGKGLEWVARIRSKYNNYATYYADSVKDRFTISRDDSKSILYLQMNNLKTEDTAVYYCVRHGNFQNSYVSWFQYWGQGTLVTVSS VL: not shown	–	0.402	3.4	0.00517	1.52e+06	0.434
CD3 monoclonal antibody M17 (antibody, human IgG1, lambda, V domains shown, IgG: VH17 + IgG1 mutant CH, VL-1 + CL) VH: EVQLVESGGGLVQPGGSLRLSCAASGFTFNTYAMNWVRQAPGKGLEWVARIRSKYNNYATYYADSVKDRFTISRDDSKSILYLQMNSLKTEDTAMYYCVRHGNFWNSYVSWFASWGQGTLVTVSS VL: not shown	–	0.181	2.52	0.00108	429000	0.21
CD3 monoclonal antibody M3 (antibody, human IgG1, lambda, V domains shown, IgG: VH3 + IgG1 mutant CH, VL-1 + CL) VH: EVQLVESGGGLVQPGGSLRLSCAASGFTFNTYAMNWVRQAPGKGLEWVARIRSKYNNYATYYADSVKDRFTISRDDSKSILYLQMNSLKTEDTAMYYCVRHGNFGNSYVSWFEYWGQGTLVTVSS VL: not shown	–	0.261	1.36	0.0015	1.1e+06	0.315
CD3 monoclonal antibody M2 (antibody, human IgG1, lambda, V domains shown, IgG: VH2 + IgG1 mutant CH, VL-1 + CL) VH: EVQLVESGGGLVQPGGSLRLSCAASGFTFNTYAMNWVRQAPGKGLEWVARIRSKYNNYATYYADSVKGRFTISRDDSKSSLYLQMNSLKTEDTAMYYCVRAKNFGNSYVSWFAYWGQGTLVTVSS VL: not shown	–	0.214	6.6	0.00363	550000	0.225
CD3 monoclonal antibody M1 (antibody, human IgG1, lambda, V domains shown, IgG: VH1 + IgG1 mutant CH, VL-1 + CL) VH: EVQLVESGGGLVQPGGSLRLSCAASGFTFNTYAMNWVRQAPGKGLEWVARIRSKYNNYATYYADSVKGRFTISRDDSKSILYLQMNNLKTEDTAMYYCVRHANFLNSYVSWFAYWGQGTLVTVSS VL: not shown	–	0.581	2.57	0.0105	4.09e+06	0.117
CD3 monoclonal antibody M18 (antibody, human IgG1, lambda, V domains shown, IgG: VH18 + IgG1 mutant CH, VL-1 + CL) VH: EVQLVESGGGLVQPGGSLRLSCAASGFTFNTYAMNWVRQAPGKGLEWVARIRSKYNNYATYYADSVKDRFTISRDDSKSSLYLQMNSLKTEDTAMYYCVRAGNFGNSYVNWFAYWGQGTLVTVSS VL: not shown	–	0.515	179	–	–	0.841
CD3 monoclonal antibody M13 (antibody, human IgG1, lambda, V domains shown, IgG: VH13 + IgG1 mutant CH, VL-1 + CL) VH: EVQLVESGGGLVQPGGSLRLSCAASGFTFNTYAMNWVRQAPGKGLEWVARIRSKYNNYATYYADSVKGRFTISRDDSKSSLYLQMNSLKTEDTAVYYCVRHGNFKNSYGSWFAYWGQGTLVTVSS VL: not shown	–	0.832	3.33	0.00045	135000	0.276
CD3 monoclonal antibody M7 (antibody, human IgG1, lambda, V domains shown, IgG: VH7 + IgG1 mutant CH, VL-1 + CL) VH: EVQLVESGGGLVQPGGSLRLSCAASGFTFNTYAMNWVRQAPGKGLEWVARIRSKYNNYATYYADSVKDRFTISRDDSKSSLYLQMNNLKTEDTAMYYCVRAGNFGNSYVSWFEYWGQGTLVTVSS VL: not shown	–	1.71	2.39	0.0011	460000	0.69
CD3 monoclonal antibody M15 (antibody, human IgG1, lambda, V domains shown, IgG: VH15 + IgG1 mutant CH, VL-1 + CL) VH: EVQLVESGGGLVQPGGSLRLSCAASGFTFNTYAMNWVRQAPGKGLEWVARIRSKYNNYATYYADSVKDRFTISRDDSKSSLYLQMNSLKTEDTAMYYCVRHGDPGNSYVSWFAYWGQGTLVTVSS VL: not shown	–	0.166	160	–	–	0.118
CD3 monoclonal antibody M6 (antibody, human IgG1, lambda, V domains shown, IgG: VH6 + IgG1 mutant CH, VL-1 + CL) VH: EVQLVESGGGLVQPGGSLRLSCAASGFTFNTYAMNWVRQAPGKGLEWVARIRSKYNNYATYYADSVKGRFTISRDDSKSSLYLQMNSLKTEDTAMYYCVRHGNFYNSYVSWFAHWGQGTLVTVSS VL: not shown	–	0.169	3.63	0.00354	973000	0.172
CD3 monoclonal antibody M16 (antibody, human IgG1, lambda, V domains shown, IgG: VH16 + IgG1 mutant CH, VL-1 + CL) VH: EVQLVESGGGLVQPGGSLRLSCAASGFTFNTYAMNWVRQAPGKGLEWVARIRSKYNNYATYYADSVKGRFTISRDDSKSILYLQMNSLKTEDTAVYYCVRHGNFGNSYVSWFQYWGQGTLVTVSS VL: not shown	–	0.477	2.02	0.00188	929000	0.162
CD3 monoclonal antibody M12 (antibody, human IgG1, lambda, V domains shown, IgG: VH12 + IgG1 mutant CH, VL-1 + CL) VH: EVQLVESGGGLVQPGGSLRLSCAASGFTFNTYAMNWVRQAPGKGLEWVARIRSKYNNYATYYADSVKGRFTISRDDSKSSLYLQMNNLKTEDTAMYYCVRHSNFPNSYVSWFAYWGQGTLVTVSS VL: not shown	–	0.27	1.93	0.00768	3.97e+06	0.162
CD3 monoclonal antibody M5 (antibody, human IgG1, lambda, V domains shown, IgG: VH5 + IgG1 mutant CH, VL-1 + CL) VH: EVQLVESGGGLVQPGGSLRLSCAASGFTFNTYAMNWVRQAPGKGLEWVARIRSKYNNYATYYADSVKDRFTISRDDSKSILYLQMNSLKTEDTAVYYCVRHGNFKNSYVSWFAYWGQGTLVTVSS VL: not shown	–	0.154	5.84	0.0101	1.74e+06	0.152
